Experiments:
[1] = biological target: ΔEGF/Lam_Celsr3 (Celsr3-Flag lacking all the EGF repeats and Laminin domains) (mouse) (UniProt Q91ZI0); test: co-IP
[2] = biological target: ΔLaminin G1_Celsr3 (Celsr3-Flag lacking the Laminin G1 domain) (mouse) (UniProt Q91ZI0); test: co-IP

B1: mouse Frizzled3 (Frizzled3-HA) (receptor)
chain: HSLFSCEPITLRMCQDLPYNTTFMPNLLNHYDQQTAALAMEPFHPMVNLDCSRDFRPFLCALYAPICMEYGRVTLPCRRLCQRAYSECSKLMEMFGVPWPEDMECSRFPDCDEPYPRLVDLNLVGDPTEGAPVAVQRDYGFWCPRELKIDPDLGYSFLHVRDCSPPCPNMYFRREELSFARYFIGLISIICLSATLFTFLTFLIDVTRFRYPERPIIFYAVCYMMVSLIFFIGFLLEDRVACNASSPAQYKASTVTQGSHNKACTMLFMVLYFFTMAGSVWWVILTITWFLAAVPKWGSEAIEKKALLFHASAWGIPGTLTIILLAMNKIEGDNISGVCFVGLYDVDALRYFVLAPLCLYVVVGVSLLLAGIISLNRVRIEIPLEKENQDKLVKFMIRIGVFSILYLVPLLVVIGCYFYEQAYRGIWETTWIQERCREYHIPCPYQVTQMSRPDLILFLMKYLMALIVGIPSIFWVGSKKTCFEWASFFHGRRKKEIVNESRQVLQEPDFAQSLLRDPNTPIIRKSRGTSTQGTSTHASSTQLAMVDDQRSKAGSVHSKVSSYHGSLHRSRDGRYTPCSYRGMEERLPHGSMSRLTDHSRHSSSHRLNEQSRHSSIRDLSNNPMTHITHGTSMNRVIEEDGTSA
percent reduction of the interaction against wild type Celsr3 [1]: 68% | percent reduction of the interaction against wild type Celsr3 [2]: 66%
